Experimental data reported in the Immune Epitope Database (IEDB).
pKd: −log10 of the molar value.

What was measured:
Assay in all cases: IEDB peptide-MHC binding, purified MHC/competitive/radioactivity; filed as Kd, often an IC50 or EC50 that approximates it; ≥ and ≤ were set here for values at or beyond the usual limits of such assays
[1] = biological target: HLA-A*02:03
[2] = biological target: HLA-A*02:06
[3] = biological target: HLA-A*02:02
[4] = source organism: Vaccinia virus WR
[5] = source organism: Dengue virus 3 Martinique/1243/1999
[6] = source organism: Dengue virus 1 Brazil/97-11/1997
[7] = source organism: SARS coronavirus Tor2
[8] = source organism: Mammarenavirus juninense
[9] = source organism: Mammarenavirus brazilense

Sequence | pKd [1, 4] | pKd [2, 4] | pKd [3, 4] | also measured
ILANERYRSA | 7.74 | 5.11 | 6.98 | 
IMTIDLDPV |  |  |  | pKd [1, 5]: 7.82; pKd [2, 5]: 7.46
EIARIENEM | ≤ 4.32 | ≤ 4.11 | 6.47 | 
FISIYSRPKI | 6.99 | 6.40 | 7.64 | 
VLQQNNSFI | 6.60 | 5.06 | 7.00 | 
TIGLSLVASV |  |  |  | pKd [1, 6]: 7.89
SIDHCSSFI | 7.89 | 6.70 | 6.20 | 
IVAAVIIMA | 5.58 | 5.45 | 4.98 | 
TIEDDKIVTM | 4.76 | ≤ 4.58 | 4.77 | 
RVKQWVMDT | 8.44 | 4.87 | 5.44 | 
FVSTMPVET | 6.41 | 5.81 | 5.91 | 
VLFSGVSWT |  |  |  | pKd [1, 6]: 7.22
YLLGLSAIM |  |  |  | pKd [1, 7]: 7.43; pKd [2, 7]: 8.49; pKd [3, 7]: 8.77
YCNYTKFWYV |  |  |  | pKd [1, 8]: 7.00; pKd [2, 8]: 8.18; pKd [3, 8]: 6.49
LSNCVHPAV |  |  |  | pKd [1, 9]: 5.96; pKd [2, 9]: 6.34; pKd [3, 9]: 6.37
FLFLAWIML |  |  |  | pKd [1, 7]: 7.42; pKd [2, 7]: 7.44; pKd [3, 7]: 8.74
KMFEATARGA |  |  |  | pKd [1, 6]: 7.29
SVDAMIHKT | 5.44 | 4.97 | 5.30 | 
GLFKTLTGEI |  |  |  | pKd ([1]; source organism: Dengue virus 4 Philippines/H241/1956): 7.82
YSMCTGKFKV |  |  |  | pKd ([2]; source organism: Dengue virus 2 16681-PDK53): 7.26
KTEHCDDFM | 4.74 | 5.60 | 5.19 | 
STVDVRNIVT | 4.94 | 5.80 | 5.51 | 
LAEYIRHRNT | 4.85 | ≤ 4.16 | ≤ 4.44 | 
YQSFLFWFL | 8.60 | 7.40 | 9.42 | 
ELKHGLLDSI | 7.26 | 5.87 | 6.27 | 
DILQMREIIT | ≤ 4.25 | 4.75 | ≤ 4.34 | 
SMSQELAELL | 7.26 | 6.32 | 8.21 | 
